Data from patent US20200369773A1 (CELDARA MEDICAL, published 2020).

T1: FITC-recombinant mouse Fn14:human Fc (ENZO ALX-522-036F) (mouse, UniProt Q9CR75 28-80, FITC label (site not stated))
T1 construct: Bought reagent; also called FITC-recombinant Fn14; recombinant Fn14; not shown: human Fc
T1 sequence: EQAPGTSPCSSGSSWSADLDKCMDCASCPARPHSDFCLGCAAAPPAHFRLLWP


Target: T1, FITC-recombinant mouse Fn14:human Fc …
Experiment: flow cytometry; transduced mouse T cells stained with FITC-recombinant mouse Fn14:human Fc
Procedure: Cell samples that were subjected to transduction with pFB vector containing the anti-Fn14 CAR and T2A+mtrCD19 (4A8H_mt19, 4A8L_mt19, 3G5H_mt19, 3G5L_mt19) construct or just the T2A+mtrCD19 (mt19) construct (from Day 8 of Example 1) were harvested, and 0.25×10⁶ cells in 100 μL of FACS buffer were placed in a 96 well round bottom plate. The plate was spun at 500 ref for 1 min at room temperature, and the supernatant was removed. Cells in each well were resuspended in 25 μL of Blocking buffer and incubated on ice for 10 min.
Cells were then added with 150 μL of FACS buffer and spun at 500 ref for 2 min, and the supernatant was removed. This washing step was repeated once more with 200 μL of FACS buffer.
For the same day FACS analysis, cells in each well were resuspended in 250 μL of FACS buffer and analyzed on flow cytometer. For the next day analysis, cells were diluted in 250 μL of Fixation buffer until analyzed the following day. Cells were stored on ice or 4° C., protected from light, until run on FACS machine.

Row | % anti-Fn14 CAR^+ of CD3^+ cells (staining with FITC-recombinant Fn14) [%] | Binder
1 | 1.6 | mouse truncated CD19 (mtrCD19), mock construct without CAR (other, Negative control: mouse T cells transduced with a vector that encodes only mtrCD19 and no CAR; also called mt19; mock transduced cells) RPQKSLLVEVEEGGNVVLPCLPDSSPVSSEKLAWYRGNQSTPFLELSPGSPGLGLHVGSLGILLVIVNVSDHMGGFYLCQKRPPFKDIWQPAWTVNVEDSGEMFRWNASDVRDLDCDLRNRSSGSHRSTSGSQLYVWAKDHPKVWGTKPVCAPRGSSLNQSLINQDLTVAPGSTLWLSCGVPPVPVAKGSISWTHVHPRRPNVSLLSLSLGGEHPVREMWVWGSLLLLPQATALDEGTYYCLRGNLTIERHVKVIARSAVWLWLLRTGGWIVPVVTLVYVIFCMVSLVAFLYCQRAFILRRKRKRMT
2 | 10.8 | scFvP3G5VHVL-mCD28H-mCD28TM-mCD28CS-mCD3zICS (anti-Fn14 CAR) (receptor, Chimeric antigen receptor on transduced mouse T cells) QVQLQQSGPEVVRPGVSVKISCKGSGYTFTDYGIHWVKQSHAKSLEWIGVISTYNGYTNYNQKFKGKATMTVDKSSSTAYMELARLTSEDSAIYYCARAYYGNLYYAMDYWGQGTSVTVSSGGGGSGGGGSGGGGSDIVLTQSPASLAVSLGQRATISCRANKSVSTSSYSYMHWYQQKPGQPPKLLIKYASNLESGVPARFSGSGSGTDFILNIHPVEEEDAATYYCQHSRELPFTFGSGTKLEIKIKEKHLCHTQSSPKLFWALVVVAGVLFCYGLLVTVALCVIWTNSRRNRLLQSDYMNMTPRRPGLTRKPYQPYAPARDFAAYRPRAKFSRSAETAANLQDPNQLYNELNLGRREEYDVLEKKRARDPEMGGKQQRRRNPQEGVYNALQKDKMAEAYSEIGTKGERRRGKGHDGLYQGLSTATKDTYDALHMQTLAPR
3 | 11.4 | scFvP3G5VLVH-mCD28H-mCD28TM-mCD28CS-mCD3zICS (anti-Fn14 CAR) (receptor, Chimeric antigen receptor on transduced mouse T cells) DIVLTQSPASLAVSLGQRATISCRANKSVSTSSYSYMHWYQQKPGQPPKLLIKYASNLESGVPARFSGSGSGTDFILNIHPVEEEDAATYYCQHSRELPFTFGSGTKLEIKGGGGSGGGGSGGGGSQVQLQQSGPEVVRPGVSVKISCKGSGYTFTDYGIHWVKQSHAKSLEWIGVISTYNGYTNYNQKFKGKATMTVDKSSSTAYMELARLTSEDSAIYYCARAYYGNLYYAMDYWGQGTSVTVSSIKEKHLCHTQSSPKLFWALVVVAGVLFCYGLLVTVALCVIWTNSRRNRLLQSDYMNMTPRRPGLTRKPYQPYAPARDFAAYRPRAKFSRSAETAANLQDPNQLYNELNLGRREEYDVLEKKRARDPEMGGKQQRRRNPQEGVYNALQKDKMAEAYSEIGTKGERRRGKGHDGLYQGLSTATKDTYDALHMQTLAPR
